Assay results published in article PMC5762634, “Domain swapping and SMYD1 interactions with the PWWP domain of human hepatoma-derived growth factor” (Scientific Reports, 2018).

Molecular target: the molecule itself
Assay: SEC; Superdex-200; apo PWWP domain at higher initial concentration (proportion of dimer rises with concentration); 20 mM Tris-HCl, 5 mM EDTA, 5 mM beta-ME, pH 7.5

B1: human HDGF PWWP domain (residues 1-100) (domain or fragment)
chain: not shown
notes: human hepatoma-derived growth factor (HDGF), N-terminal PWWP domain, the first 100 amino acids; Subcloned into the NdeI and EcoRI sites of pET28a; also called apo PWWP domain; HDGF PWWP_(1-100) domain; source: E. coli BL21-Codon Plus-RIL, purified (Ni2+-NTA, Hitrap Q, Superdex-200)
stoichiometry N: 2
